Measured values: the supplement of paper PMC11865577

How the values were obtained:
Experiment in all cases: pull-down binding Z-score (relative to library population); higher = stronger binding
Details in all cases: RNA library: Library-2
[1] = tested on: TO-3-N3 (biotin conjugate)
Summary of the method: (§1)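 Cy5- or Cy3-end-labelled RNA library (1 μg) was heat-folded in phosphate/NaCl/KCl buffer and incubated 60 min at 25 °C with streptavidin beads carrying 100 pmol biotin-conjugated small molecule. After three washes, bound RNA was eluted in hot SDS and hybridised 20 h at 55.5 °C to a DNA barcode microarray. Binding was scored by subtracting a beads-only control, averaging barcoded replicate probes after dropping highest and lowest, and converting to a Z-score against library mean and standard deviation.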

[2] = tested on: TO-3-N3-2 (biotin conjugate)
Summary of the method: as §1

TO-N3 (biotin conjugate) = tested on: TO-N3 (biotin conjugate)
Summary of the method: as §1

[3] = tested on: TO-N3-2 (biotin conjugate)
Summary of the method: as §1

| Sequence | pull-down binding Z-score [1] | pull-down binding Z-score [2] | pull-down binding Z-score (TO-N3 (biotin conjugate)) | pull-down binding Z-score [3] |
| --- | --- | --- | --- | --- |
| CACUCAAAGGCGGUGCACCAACAAAGGUUACUUUUGGUGAUGACACUGUGAUAGAAGUG [DMSMaPseq_invitro_SARS-CoV-2_Motif_50] | -0.531 | -0.205 | -0.234 | -0.0256 |
| CACUGUACAGUCUAAAAUGUCAGAUGUAAAGUG [DMSMaPseq_invitro_SARS-CoV-2_Motif_208] | -0.25 | -0.0983 | -0.414 | -0.645 |
| CACUUAUCUUAGCCUACUGUAAUAAGACAGUAGGUGAGUUAGGUG | -0.861 | -0.273 | -1.2 | -1.07 |
| CACUUCUUUCUUUGAGAGAAGUG | -0.323 | -0.228 | -0.669 | -1.42 |
| CAGACAACACAUUUGUGUCUG | -1.07 | -0.67 | -1.45 | -1.8 |
| CAGACUUUAUGAGUGUCUCUAUAGAAAUAGAGAUGUUGACACAGACUUUGUGAAUGAGUUUUACGCAUAUUUGCGUAAACAUUUCUCAAUGAUGAUACUCUCUG | -0.919 | -0.449 | -1.21 | -1.1 |
| CAGACUUUGUGAAUGAGUUUUACGCAUAUUUGCGUAAACAUUUCUCAAUGAUGAUACUCUCUG | -0.682 | -0.222 | -0.747 | -0.783 |
| CAGAGACUUGAAGAUGUCUUUG [IAV_invivo_M1_M2_7_Motif_2+IAV_invivo_M1_M2_7_Motif_2] | -0.637 | -0.362 | -0.897 | -0.242 |
| CAGAGUACUCAAUGGUCUUUG | -0.33 | -0.543 | -0.395 | -0.606 |
| CAGAGUCACAUGUUGACACUG | 0.214 | -0.263 | -0.0159 | -0.894 |
| CAGAGUCGUAUUUGUCUUAUGGGCACAUGGCUUUG [SHAPE_invivo_SARS-CoV-2_Motif_350] | 0.361 | -0.171 | 0.131 | -0.215 |
| CAGCAAGAACUG [DMSMaPseq_invitro_SARS-CoV-2_Motif_202] | -0.324 | -0.578 | -0.633 | -0.724 |
| CAGGACACGAGUAACUCGUCUAUCUUCUG [SARS-CoV-2-Conserved-Structured-36_Interval-120-237_Motif_2] | 0.225 | -0.0048 | 0.324 | 0.379 |
